From patent US20200199241A1 (Chugai, published 2020) come the findings set out here.

B1: IgG1-F638 (antibody)
heavy: QVQLQESGPGLVKPSETLSLTCAVSGHSISHDHAWSWVRQPPGEGLEWIGFISYSGITNYNPSLQGRVTISRDNSKNTLYLQMNSLRAEDTAVYYCARSLARTTAMDYWGEGTLVTVSSASTKGPSVFPLAPSSKSTSGGTAALGCLVKDYFPEPVTVSWNSGALTSGVHTFPAVLQSSGLYSLSSVVTVPSSSLGTQTYICNVNHKPSNTKVDKKVEPKSCDKTHTCPPCPAPELLGGPKVFLFPPKPKDTLYISRTPEVTCVVVDVSHEDPEVKFNWYVDGVEVHNASTKPREEQYNSTYRVVSVLTPLHQDWLNGKEYKCKVSNKALPAPIEKTISKAKGQPREPQVYTLPPSRDELTKNQVSLTCLVKGFYPSDIAVEWESNGQPENNYKTTPPVLDSDGSFFLYSKLTVDKSRWQQGNVFSCSVMHEALHYHYTQKSLSLSP
light: not shown
notes: EU numbering; copies: 2 + 2
B2: IgG1-F649 (antibody)
heavy: QVQLQESGPGLVKPSETLSLTCAVSGHSISHDHAWSWVRQPPGEGLEWIGFISYSGITNYNPSLQGRVTISRDNSKNTLYLQMNSLRAEDTAVYYCARSLARTTAMDYWGEGTLVTVSSASTKGPSVFPLAPSSKSTSGGTAALGCLVKDYFPEPVTVSWNSGALTSGVHTFPAVLQSSGLYSLSSVVTVPSSSLGTQTYICNVNHKPSNTKVDKKVEPKSCDKTHTCPPCPAPELLGGPKVFLFPPKPKDTLYISRTPEVTCVVVDVSHEDPEVKFNWYVDGVEVHEAKTKPREEQYNSTYRVVSVLTVLHQDWLNGKEYKCKVSNKALPAPIEKTISKAKGQPREPQVYTLPPSRDELTKNQVSLTCLVKGFYPSDIAVEWESNGQPENNYKTTPPVLDSDGSFFLYSKLTVDKSRWQQGNVFSCSVMHEALHYHYTQKSLSLSP
light: not shown
notes: EU numbering; copies: 2 + 2
B3: IgG1-F643 (antibody)
heavy: QVQLQESGPGLVKPSETLSLTCAVSGHSISHDHAWSWVRQPPGEGLEWIGFISYSGITNYNPSLQGRVTISRDNSKNTLYLQMNSLRAEDTAVYYCARSLARTTAMDYWGEGTLVTVSSASTKGPSVFPLAPSSKSTSGGTAALGCLVKDYFPEPVTVSWNSGALTSGVHTFPAVLQSSGLYSLSSVVTVPSSSLGTQTYICNVNHKPSNTKVDKKVEPKSCDKTHTCPPCPAPELGRGPKVFLFPPKPKDTLYISRTPEVTCVVVDVSHEDPEVKFNWYVDGVEVHNAKTKPREEQYNSTYRVVSVLTPLHQDWLNGKEYKCKVSNKALPAPIEKTISKAKGQPREPQVYTLPPSRDELTKNQVSLTCLVKGFYPSDIAVEWESNGQPENNYKTTPPVLDSDGSFFLYSKLTVDKSRWQQGNVFSCSVMHEALHYHYTQKSLSLSP
light: not shown
notes: EU numbering; copies: 2 + 2
B4: IgG1-F639 (antibody)
heavy: QVQLQESGPGLVKPSETLSLTCAVSGHSISHDHAWSWVRQPPGEGLEWIGFISYSGITNYNPSLQGRVTISRDNSKNTLYLQMNSLRAEDTAVYYCARSLARTTAMDYWGEGTLVTVSSASTKGPSVFPLAPSSKSTSGGTAALGCLVKDYFPEPVTVSWNSGALTSGVHTFPAVLQSSGLYSLSSVVTVPSSSLGTQTYICNVNHKPSNTKVDKKVEPKSCDKTHTCPPCPAPELLGGPSVFLFPPKPKDTLYISRTPEVTCVVVDVSHEDPEVKFNWYVDGVEVHNAKTKPREEQYNSTYRVVSVLTPLHQDWLNGKEYKCKVSNKALPAPIEKTISKAKGQPREPQVYTLPPSRDELTKNQVSLTCLVKGFYPSDIAVEWESNRQPENNYKTTPPVLDSDGSFFLYSKLTVDKSRWQQGNVFSCSVMHEALHYHYTQKSLSLSP
light: not shown
notes: EU numbering; copies: 2 + 2
B5: IgG1-F644 (antibody)
heavy: QVQLQESGPGLVKPSETLSLTCAVSGHSISHDHAWSWVRQPPGEGLEWIGFISYSGITNYNPSLQGRVTISRDNSKNTLYLQMNSLRAEDTAVYYCARSLARTTAMDYWGEGTLVTVSSASTKGPSVFPLAPSSKSTSGGTAALGCLVKDYFPEPVTVSWNSGALTSGVHTFPAVLQSSGLYSLSSVVTVPSSSLGTQTYICNVNHKPSNTKVDKKVEPKSCDKTHTCPPCPAPELLRGPKVFLFPPKPKDTLYISRTPEVTCVVVDVSHEDPEVKFNWYVDGVEVHNAKTKPREEQYNSTYRVVSVLTPLHQDWLNGKEYKCKVSNKALPAPIEKTISKAKGQPREPQVYTLPPSRDELTKNQVSLTCLVKGFYPSDIAVEWESNGQPENNYKTTPPVLDSDGSFFLYSKLTVDKSRWQQGNVFSCSVMHEALHYHYTQKSLSLSP
light: not shown
notes: EU numbering; copies: 2 + 2
B6: IgG1-F650 (antibody)
heavy: QVQLQESGPGLVKPSETLSLTCAVSGHSISHDHAWSWVRQPPGEGLEWIGFISYSGITNYNPSLQGRVTISRDNSKNTLYLQMNSLRAEDTAVYYCARSLARTTAMDYWGEGTLVTVSSASTKGPSVFPLAPSSKSTSGGTAALGCLVKDYFPEPVTVSWNSGALTSGVHTFPAVLQSSGLYSLSSVVTVPSSSLGTQTYICNVNHKPSNTKVDKKVEPKSCDKTHTCPPCPAPELLGGPKVFLFPPKPKDTLYISREPEVTCVVVDVSHEDPEVKFNWYVDGVEVHNAKTKPREEQYNSTYRVVSVLTVLHQDWLNGKEYKCKVSNKALPAPIEKTISKAKGQPREPQVYTLPPSRDELTKNQVSLTCLVKGFYPSDIAVEWESNGQPENNYKTTPPVLDSDGSFFLYSKLTVDKSRWQQGNVFSCSVMHEALHYHYTQKSLSLSP
light: not shown
notes: EU numbering; copies: 2 + 2
B7: IgG1-F642 (antibody)
heavy: QVQLQESGPGLVKPSETLSLTCAVSGHSISHDHAWSWVRQPPGEGLEWIGFISYSGITNYNPSLQGRVTISRDNSKNTLYLQMNSLRAEDTAVYYCARSLARTTAMDYWGEGTLVTVSSASTKGPSVFPLAPSSKSTSGGTAALGCLVKDYFPEPVTVSWNSGALTSGVHTFPAVLQSSGLYSLSSVVTVPSSSLGTQTYICNVNHKPSNTKVDKKVEPKSCDKTHTCPPCPAPELLGGPKVFLFPPKPKDTLYISRTPEVTCVVVDVSHEDPEVKFNWYVDGVEVHNAKTKPREEQYNSTYRVVSVLTPLHQDWLNGKEYKCKVSNKALPAPIEKTISKAKGQPREPQVYTLPPSRDELTKNQVSLTCLVKGFYPSDIAVEWESNGKPENNYKTTPPVLDSDGSFFLYSKLTVDKSRWQQGNVFSCSVMHEALHYHYTQKSLSLSP
light: not shown
notes: EU numbering; copies: 2 + 2
B8: IgG1-F645 (antibody)
heavy: QVQLQESGPGLVKPSETLSLTCAVSGHSISHDHAWSWVRQPPGEGLEWIGFISYSGITNYNPSLQGRVTISRDNSKNTLYLQMNSLRAEDTAVYYCARSLARTTAMDYWGEGTLVTVSSASTKGPSVFPLAPSSKSTSGGTAALGCLVKDYFPEPVTVSWNSGALTSGVHTFPAVLQSSGLYSLSSVVTVPSSSLGTQTYICNVNHKPSNTKVDKKVEPKSCDKTHTCPPCPAPELLGGPKVFLFPPKPKDTLYISRTPEVTCVVVDVSHEDPEVKFNWYVDGVEVHNAKTKPREEQYNSTYRVVSVLTPLHQDWLNGKEYKCKVSNKARPAPIEKTISKAKGQPREPQVYTLPPSRDELTKNQVSLTCLVKGFYPSDIAVEWESNGQPENNYKTTPPVLDSDGSFFLYSKLTVDKSRWQQGNVFSCSVMHEALHYHYTQKSLSLSP
light: not shown
notes: EU numbering; copies: 2 + 2
B9: IgG1-F641 (antibody)
heavy: QVQLQESGPGLVKPSETLSLTCAVSGHSISHDHAWSWVRQPPGEGLEWIGFISYSGITNYNPSLQGRVTISRDNSKNTLYLQMNSLRAEDTAVYYCARSLARTTAMDYWGEGTLVTVSSASTKGPSVFPLAPSSKSTSGGTAALGCLVKDYFPEPVTVSWNSGALTSGVHTFPAVLQSSGLYSLSSVVTVPSSSLGTQTYICNVNHKPSNTKVDKKVEPKSCDKTHTCPPCPAPELLGGPSVFLFPPKPKDTLYISRTPEVTCVVVDVSHEDPEVKFNWYVDGVEVHNAKTKPREEQYNSTYRVVSVLTPLHQDWLNGKEYKCKVSNKALPAPIEKTISKAKGQPREPQVYTLPPSRDELTKNQVSLTCLVKGFYPSDIAVEWESNGKPENNYKTTPPVLDSDGSFFLYSKLTVDKSRWQQGNVFSCSVMHEALHYHYTQKSLSLSP
light: not shown
notes: EU numbering; copies: 2 + 2
B10: IgG1-F640 (antibody)
heavy: QVQLQESGPGLVKPSETLSLTCAVSGHSISHDHAWSWVRQPPGEGLEWIGFISYSGITNYNPSLQGRVTISRDNSKNTLYLQMNSLRAEDTAVYYCARSLARTTAMDYWGEGTLVTVSSASTKGPSVFPLAPSSKSTSGGTAALGCLVKDYFPEPVTVSWNSGALTSGVHTFPAVLQSSGLYSLSSVVTVPSSSLGTQTYICNVNHKPSNTKVDKKVEPKSCDKTHTCPPCPAPELLGGPKVFLFPPKPKDTLYISRTPEVTCVVVDVSHEDPEVKFNWYVDGVEVHNAKTKPREEQYNSTYRVVSVLTPLHQDWLNGKEYKCKVSNKALPAPIEKTISKAKGQPREPQVYTLPPSRDELTKNQVSLTCLVKGFYPSDIAVEWESNRQPENNYKTTPPVLDSDGSFFLYSKLTVDKSRWQQGNVFSCSVMHEALHYHYTQKSLSLSP
light: not shown
notes: EU numbering; copies: 2 + 2
B11: IgG1-F647 (antibody)
heavy: QVQLQESGPGLVKPSETLSLTCAVSGHSISHDHAWSWVRQPPGEGLEWIGFISYSGITNYNPSLQGRVTISRDNSKNTLYLQMNSLRAEDTAVYYCARSLARTTAMDYWGEGTLVTVSSASTKGPSVFPLAPSSKSTSGGTAALGCLVKDYFPEPVTVSWNSGALTSGVHTFPAVLQSSGLYSLSSVVTVPSSSLGTQTYICNVNHKPSNTKVDKKVEPKSCDKTHTCPPCPAPELLGGDSVFLFPPKPKDTLYISRTPEVTCVVVDVSHEDPEVKFNWYVDGVEVHNAKTKPREEQYNSTYRVVSVLTPLHQDWLNGKEYKCKVSNKALPAPIEKTISKAKGQPREPQVYTLPPSRDELTKNQVSLTCLVKGFYPSDIAVEWESNGQPENNYKTTPPVLDSDGSFFLYSKLTVDKSRWQQGNVFSCSVMHEALHYHYTQKSLSLSP
light: not shown
notes: EU numbering; copies: 2 + 2
B12: IgG1-F646 (antibody)
heavy: QVQLQESGPGLVKPSETLSLTCAVSGHSISHDHAWSWVRQPPGEGLEWIGFISYSGITNYNPSLQGRVTISRDNSKNTLYLQMNSLRAEDTAVYYCARSLARTTAMDYWGEGTLVTVSSASTKGPSVFPLAPSSKSTSGGTAALGCLVKDYFPEPVTVSWNSGALTSGVHTFPAVLQSSGLYSLSSVVTVPSSSLGTQTYICNVNHKPSNTKVDKKVEPKSCDKTHTCPPCPAPELLGGPKVFLFPPKPKDTLYISRTPEVTCVVVDVSHEDPEVKFNWYVDGVEVHNAKTKPREEQYASTYRVVSVLTPLHQDWLNGKEYKCKVSNKALPAPIEKTISKAKGQPREPQVYTLPPSRDELTKNQVSLTCLVKGFYPSDIAVEWESNGQPENNYKTTPPVLDSDGSFFLYSKLTVDKSRWQQGNVFSCSVMHEALHYHYTQKSLSLSP
light: not shown
notes: EU numbering; copies: 2 + 2

This test deals with T1, human FcRn (soluble human FcRn complexed with β2-microglobulin) (human, UniProt P61769 21-119, limits assumed).
T1 construct: also called hFcRn
T1 sequence (chain, as listed by the source limits assumed, chain 1 of 2): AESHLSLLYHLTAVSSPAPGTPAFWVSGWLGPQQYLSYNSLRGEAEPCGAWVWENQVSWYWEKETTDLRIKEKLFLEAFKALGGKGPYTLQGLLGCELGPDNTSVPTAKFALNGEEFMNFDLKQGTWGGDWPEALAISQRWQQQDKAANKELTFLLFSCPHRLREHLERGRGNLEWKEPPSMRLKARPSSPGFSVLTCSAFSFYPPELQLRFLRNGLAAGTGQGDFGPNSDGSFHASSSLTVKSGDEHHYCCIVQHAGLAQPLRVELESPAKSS
T1 sequence (P61769 21-119 limits assumed, chain 2 of 2): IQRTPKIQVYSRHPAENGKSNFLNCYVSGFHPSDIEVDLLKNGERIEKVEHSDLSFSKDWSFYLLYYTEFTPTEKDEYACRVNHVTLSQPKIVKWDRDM
In words: SPR, pH 7.0.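 Note: antibodies captured on a Protein L sensor chip with human FcRn injected as analyte, KD calculated from fitted association and dissociation rate constants.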 On the technique in general: In SPR one partner is held on a chip, and binding of the other changes the refractive index at the surface.
By Kd is commonly meant the free concentration of one partner at which half of the binding sites on the other are occupied at equilibrium, for simple one-to-one binding. Low values mean a tighter complex, high ones a looser complex. Regarding B1, the Kd came to 140 nM.
In the case of B2 it was 120 nM; in that of B3, 32 nM.
The molecule B4 returned a Kd of 27 nM.
The value for B5 was 30 nM; that for B6 was 170 nM.
In turn, B7 had a Kd of 30 nM.
B8 registered a Kd of 33 nM.
In the case of B9, the Kd turned out to be 30 nM.
B10: binding was put at a Kd of 36 nM.
As to B11, the affinity, expressed as Kd, was 29 nM.
Molecule B12 had a Kd of 38 nM.
